Results as given in US20240228656A1 (HARPOON THERAPEUTICS, published 2024).

How the values were obtained:
[1] = target: T1, EpCAM H13 Mask27 L040 (EpCAM targeting ProTriTAC with H13); experiment: binding assay, affinity summary
T1 construct: trispecific prodrug: masked anti-albumin sdAb-cleavable linker L040-anti-CD3 scFv-anti-EpCAM sdAb H13-His6; also called H13 ProTriTAC (L040)

[2] = target: T2, EpCAM H90.2 Mask27 L040 (EpCAM targeting ProTriTAC with H90.2); experiment: binding assay with kinetics, affinity summary (instrument not stated)
T2 construct: trispecific prodrug; also called H90.2 ProTriTAC (L040)
T2 sequence (chain, as listed by the source): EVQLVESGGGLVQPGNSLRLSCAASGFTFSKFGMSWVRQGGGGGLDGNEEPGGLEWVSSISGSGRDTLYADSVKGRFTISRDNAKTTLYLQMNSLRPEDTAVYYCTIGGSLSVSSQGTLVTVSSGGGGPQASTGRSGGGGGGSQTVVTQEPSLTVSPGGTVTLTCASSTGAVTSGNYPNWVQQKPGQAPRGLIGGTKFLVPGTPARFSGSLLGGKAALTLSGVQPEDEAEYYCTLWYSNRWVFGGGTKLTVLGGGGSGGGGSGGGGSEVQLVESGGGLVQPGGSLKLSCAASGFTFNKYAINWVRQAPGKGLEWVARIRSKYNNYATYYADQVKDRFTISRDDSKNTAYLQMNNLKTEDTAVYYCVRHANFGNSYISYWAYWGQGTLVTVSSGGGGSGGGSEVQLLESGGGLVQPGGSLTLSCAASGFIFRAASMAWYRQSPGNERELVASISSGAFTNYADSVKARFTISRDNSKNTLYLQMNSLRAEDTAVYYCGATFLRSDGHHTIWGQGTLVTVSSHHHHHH

[3] = target: T3, EpCAM H90 Mask27 L040 (EpCAM targeting ProTriTAC with H90); experiment: as above
T3 construct: trispecific prodrug: masked anti-albumin sdAb-L040-anti-CD3 scFv-anti-EpCAM sdAb H90-His6
T3 sequence (chain, as listed by the source): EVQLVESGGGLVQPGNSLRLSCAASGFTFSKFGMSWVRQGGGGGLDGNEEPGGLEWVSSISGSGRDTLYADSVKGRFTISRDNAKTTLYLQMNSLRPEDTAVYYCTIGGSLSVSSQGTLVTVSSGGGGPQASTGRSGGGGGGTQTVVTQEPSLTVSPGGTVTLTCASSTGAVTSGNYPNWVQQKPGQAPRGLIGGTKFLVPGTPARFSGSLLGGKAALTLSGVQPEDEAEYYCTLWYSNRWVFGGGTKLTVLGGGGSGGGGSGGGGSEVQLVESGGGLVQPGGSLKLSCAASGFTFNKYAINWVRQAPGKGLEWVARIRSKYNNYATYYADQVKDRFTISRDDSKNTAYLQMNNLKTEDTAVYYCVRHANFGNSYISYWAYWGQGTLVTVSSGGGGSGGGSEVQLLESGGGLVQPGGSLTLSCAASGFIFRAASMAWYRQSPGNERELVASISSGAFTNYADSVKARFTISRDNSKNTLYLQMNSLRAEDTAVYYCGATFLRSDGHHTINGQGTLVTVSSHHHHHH

T1 sequence (chain, as listed by the source): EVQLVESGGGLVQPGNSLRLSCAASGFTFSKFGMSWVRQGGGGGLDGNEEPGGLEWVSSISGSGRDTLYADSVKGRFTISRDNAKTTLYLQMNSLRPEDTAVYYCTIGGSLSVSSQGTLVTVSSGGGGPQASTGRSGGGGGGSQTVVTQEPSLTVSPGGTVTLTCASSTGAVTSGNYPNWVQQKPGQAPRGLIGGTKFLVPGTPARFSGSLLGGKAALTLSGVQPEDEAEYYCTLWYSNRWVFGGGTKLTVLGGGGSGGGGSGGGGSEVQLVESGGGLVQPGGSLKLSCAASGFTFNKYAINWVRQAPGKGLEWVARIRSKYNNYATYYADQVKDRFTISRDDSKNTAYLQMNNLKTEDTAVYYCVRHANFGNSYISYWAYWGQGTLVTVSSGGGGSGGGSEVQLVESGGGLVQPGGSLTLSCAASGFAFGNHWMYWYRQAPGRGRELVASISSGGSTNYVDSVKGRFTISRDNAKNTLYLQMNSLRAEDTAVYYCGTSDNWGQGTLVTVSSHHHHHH

binding result [1]: no binding | Kd [2]: 0.15 nM | Kd [3]: 0.26 nM
B1: mouse EpCAM (other)
chain: QRDCVCDNYKLATSCSLNEYGECQCTSYGTQNTVICSKLASKCLAMKAEMTHSKSGRRIKPEGAIQNNDGLYDPDCDEQGLFKAKQCNGTATCWCVNTAGVRRTDKDTEITCSERVRTYWIIIELKHKERESPYDHQSLQTALQEAFTSRYKLNQKFIKNIMYENNVITIDLMQNSSQKTQDDVDIADVAYYFEKDVKGESLFHSSKSMDLRVNGEPLDLDPGQTLIYYVDEKAPEFSMQGLT
modifications: biotinylated
notes: also called muEpCAM (biotinylated version of mouse EpCAM antigen)
